Measured values taken from article PMC3863792.

T1: bio-d-mC5a (mirror-image mouse C5a) (mouse, UniProt P06684)
T1 sequence: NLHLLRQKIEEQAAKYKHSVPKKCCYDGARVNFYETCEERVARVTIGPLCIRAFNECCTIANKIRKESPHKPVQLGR


Target: T1, bio-d-mC5a (mirror-image mouse C5a)
Assay: competition

Binder | binding result
GCCUGAUGUGGUGUUGAAGGGUUGUUGGGUGUCGACGCACAGGC (structured_RNA) [274-C8-002] | binds
GCCUGAUGUGGUGGUGAAGGGUUGUUGGGUGUCGACGCACAGGC (structured_RNA) [274-C8-002-G14] | binds
